Results from patent US20090291890A1 (published 2009).
Numbering of substitutions follows the chain as printed. Numbers in names are those of the source. Where “and” joins values, the source holds several entries; their conditions need not be identical. Identical values can stand only once.

T1: Mesyl-dFPR-ACC
T1 sequence (peptide, N-terminal mesyl; D-Phe at position 1 (dF); C-terminal ACC fluorophore): FPR

B1: A122N/G124S-FVIIa (enzyme)
chain: ANAFLEELRPGSLERECKEEQCSFEEAREIFKDAERTKLFWISYSDGDQCASSPCQNGGSCKDQLQSYICFCLPAFEGRNCETHKDDQLICVNENGGCEQYCSDHTGTKRSCRCHEGYSLLNDSVSCTPTVEYPCGKIPILEKRNASKPQGRIVGGKVCPKGECPWQVLLLVNGAQLCGGTLINTIWVVSAAHCFDKIKNWRNLIAVLGEHDLSEHDGDEQSRRVAQVIIPSTYVPGTTNHDIALLRLHQPVVLTDHVVPLCLPERTFSERTLAFVRFSLVSGWGQLLDRGATALELMVLNVPRLMTQDCLQQSRKVGDSPNITEYMFCAGYSDGSKDSCKGDSGGPHATHYRGTWYLTGIVSWGQGCATVGHFGVYTRVSQYIEWLQKLMRSEPRPGVLLRAPFP
B2: H257S-FVIIa (enzyme)
chain: B1 chain with N122A, S124G, H257S
B3: H373F-FVIIa (enzyme)
chain: B1 chain with N122A, S124G, H373F
B4: Q366V-FVIIa (enzyme)
chain: B1 chain with N122A, S124G, Q366V
B5: Q286R/H257A-FVIIa (enzyme)
chain: B1 chain with N122A, S124G, H257A, Q286R
B6: H257S/Q286R/Q366V-FVIIa (enzyme)
chain: B1 chain with N122A, S124G, H257S, Q286R, Q366V
B7: S222A/H257A/Q286R/Q366V-FVIIa (enzyme)
chain: B1 chain with N122A, S124G, S222A, H257A, Q286R, Q366V
B8: Q286R/M298Q/Q366N-FVIIa (enzyme)
chain: B1 chain with N122A, S124G, Q286R, M298Q, Q366N
B9: Q286R/H373F-FVIIa (enzyme)
chain: B1 chain with N122A, S124G, Q286R, H373F

Tests used:
[1] = biological target: Factor X (Homo sapiens (Human)) (UniProt P00742)
Mesyl-dFPR-ACC = biological target: T1, Mesyl-dFPR-ACC

Molecule | kcat/KM, TF-dependent assay [1] [M⁻¹ s⁻¹] | Activity (µmol/sec/µmol), specific activity for mesyl-dFPR-ACC (µmol/sec/µmol) (Mesyl-dFPR-ACC) | kcat/KM (M^-1s^-1), TF-dependent assay [1] | kcat/KM, TF-independent assay [1]
T128N/P129A/A175S/Q286R/M298Q-FVIIa (enzyme) | 7.21e+07 | 2.02 | – | –
Gla swap FIX/T128N/P129A/S222A/Q286R-FVIIa (enzyme) | – | 0.53 | 1.47e+08 M⁻¹ s⁻¹ and 1.43e+08 M⁻¹ s⁻¹ | 15.5 M⁻¹ s⁻¹ and 21.3 M⁻¹ s⁻¹
T128N/P129A/Q286R/H373F-FVIIa (enzyme) | – | 2.31 | 6.91e+07 M⁻¹ s⁻¹ | 6.6 M⁻¹ s⁻¹
Gla swap FIX/S52A/S60A/S222A/Q286R-FVIIa (enzyme) | – | 0.44 | 7.24e+07 M⁻¹ s⁻¹ | 2.9 M⁻¹ s⁻¹
Q286R-FVIIa (enzyme) | – | 1.24 | 8.06e+07 M⁻¹ s⁻¹ | 10.3 M⁻¹ s⁻¹
Gla swap FIX/A122N/G124S/A175S/S222A/Q286R-FVIIa (enzyme) | 4.13e+07 | 0.89 | – | –
Gla swap FIX/Q286R/M298Q-FVIIa (enzyme) | – | 1.53 | 2.55e+08 M⁻¹ s⁻¹ and 2.3e+08 M⁻¹ s⁻¹ | 673 M⁻¹ s⁻¹ and 678 M⁻¹ s⁻¹
A122N/G124S/A175S/Q286R/M298Q/H373F-FVIIa (enzyme) | 8.39e+07 | 2.71 | – | –
Gla swap FIX/T239I/Q286R/M298Q-FVIIa (enzyme) | – | 0.67 | 1.25e+08 M⁻¹ s⁻¹ | 244 M⁻¹ s⁻¹
{Gla swap FIX/K43I}/Q286R/M298Q-FVIIa (enzyme) | – | 1.2 | 2.73e+08 M⁻¹ s⁻¹ and 2.91e+08 M⁻¹ s⁻¹ | 902 M⁻¹ s⁻¹ and 794 M⁻¹ s⁻¹
T128N/P129A/S222A-FVIIa (enzyme) | – | 2.7 | 6.25e+07 M⁻¹ s⁻¹ | 4.8 M⁻¹ s⁻¹
Gla swap FIX/S222A/T239V/Q286R-FVIIa (enzyme) | – | 0.66 | 2.03e+08 M⁻¹ s⁻¹ and 9.94e+07 M⁻¹ s⁻¹ | –
A122N/G124S/A175S/Q366V-FVIIa (enzyme) | – | 2.34 | 3.02e+07 M⁻¹ s⁻¹ | 3 M⁻¹ s⁻¹
T128N/P129A/Q286R-FVIIa (enzyme) | – | 1.21 | 8.45e+07 M⁻¹ s⁻¹ and 6.2e+07 M⁻¹ s⁻¹ | 8.7 M⁻¹ s⁻¹ and 10.5 M⁻¹ s⁻¹
T128N/P129A/A175S/S222A/H257A/Q286R/M298Q-FVIIa (enzyme) | 6.89e+07 | 21.8 | – | –
A122N/G124S/A175S/Q286R/M298Q-FVIIa (enzyme) | 7.43e+07 | 3.03 | – | –
T128N/P129A/A175S/Q366V-FVIIa (enzyme) | – | 3.4 | 3.38e+07 M⁻¹ s⁻¹ | 3.4 M⁻¹ s⁻¹
Gla swap FIX/T239V/Q286R/M298Q-FVIIa (enzyme) | – | 1.13 | 2.53e+08 M⁻¹ s⁻¹ and 1.79e+08 M⁻¹ s⁻¹ | –
T128N/P129A/A175S/Q286R-FVIIa (enzyme) | – | 1.88 | 3.33e+07 M⁻¹ s⁻¹ | 3.3 M⁻¹ s⁻¹
A122N/G124S/A175S/Q286R-FVIIa (enzyme) | – | 2.16 | 4.11e+07 M⁻¹ s⁻¹ | 3 M⁻¹ s⁻¹
A122N/G124S/A175S/S222A-FVIIa (enzyme) | – | 2.68 | 2.08e+07 M⁻¹ s⁻¹ | –
T128N/P129A/Q286R/M298Q/H373F-FVIIa (enzyme) | – | 2.83 | 1.33e+08 M⁻¹ s⁻¹ | 30.7 M⁻¹ s⁻¹
GlaSwapFIX/S222A/T239I/Q286R-FVIIa (enzyme) | – | 0.25 | 6.77e+07 M⁻¹ s⁻¹ | –
V158D/E296V/M298Q-FVIIa (enzyme) | – | 3.28 | 1.81e+08 M⁻¹ s⁻¹ and 1.65e+08 M⁻¹ s⁻¹ | 1220 M⁻¹ s⁻¹ and 984 M⁻¹ s⁻¹
Gla swap FIX/S222A/Q286R/M298Q/H373F-FVIIa (enzyme) | – | 1.92 | 2.84e+08 M⁻¹ s⁻¹ | 192 M⁻¹ s⁻¹

Molecule | kcat/KM, TF-dependent assay [1] [M⁻¹ s⁻¹] | Activity (µmol/sec/µmol), specific activity for mesyl-dFPR-ACC (µmol/sec/µmol) (Mesyl-dFPR-ACC) | kcat/KM (M^-1s^-1), TF-dependent assay [1] | kcat/KM, TF-independent assay [1]
S52A/S60A/Q286R/M298Q-FVIIa (enzyme) | – | 1.08 | 1.25e+08 M⁻¹ s⁻¹ | 217 M⁻¹ s⁻¹
T128N/P129A/A175S/Q286R/M298Q/H373F-FVIIa (enzyme) | 5.72e+07 | 2.78 | – | –
T128N/P129A/V158D/E296V/M298Q-FVIIa (enzyme) | – | 3.26 | 2.01e+08 M⁻¹ s⁻¹ | 1380 M⁻¹ s⁻¹
T128N/P129A/S222A/H257A/Q286R/M298Q-FVIIa (enzyme) | – | 1.66 | 1.55e+08 M⁻¹ s⁻¹ and 1.73e+08 M⁻¹ s⁻¹ | –
Gla swap FIX/Q286R/S222A/H257S-FVIIa (enzyme) | – | 0.49 | 8.53e+07 M⁻¹ s⁻¹ | –
S52A/S60A/V158D/E296V/M298Q-FVIIa (enzyme) | – | 2.56 | 2e+08 M⁻¹ s⁻¹ | 1760 M⁻¹ s⁻¹
S52A/S60A/S222A/H257A/Q286R/M298Q-FVIIa (enzyme) | – | 0.98 | 2.49e+08 M⁻¹ s⁻¹ | 116 M⁻¹ s⁻¹
Gla swap FIX/T128N/P129A/Q286R/M298Q-FVIIa (enzyme) | – | 0.78 | 2.11e+08 M⁻¹ s⁻¹ and 1.99e+08 M⁻¹ s⁻¹ | –
S52A/S60A-FVIIa (enzyme) | – | 1.95 | 3.56e+07 M⁻¹ s⁻¹ | 3.8 M⁻¹ s⁻¹
Gla swap FIX/S222A/Q286R/H373F-FVIIa (enzyme) | – | 1.37 | 1.22e+08 M⁻¹ s⁻¹ | 81.2 M⁻¹ s⁻¹
S52A/S60A/Q286R-FVIIa (enzyme) | – | 0.44 | 4.1e+07 M⁻¹ s⁻¹ | –
T128N/P129A/A175S/S222A-FVIIa (enzyme) | – | 3.19 | 1.72e+07 M⁻¹ s⁻¹ | 1.9 M⁻¹ s⁻¹
{Gla swap FIX/Q44S}/Q286R/M298Q-FVIIa (enzyme) | – | 1.11 | 1.98e+08 M⁻¹ s⁻¹ | 729 M⁻¹ s⁻¹
{Gla swap FIX/E40L}/Q286R/M298Q-FVIIa (enzyme) | – | 1.16 | 2.08e+08 M⁻¹ s⁻¹ | 814 M⁻¹ s⁻¹
T128N/P129A/Q286R/M298Q-FVIIa (enzyme) | – | 1.8 | 1.86e+08 M⁻¹ s⁻¹ and 1.5e+08 M⁻¹ s⁻¹ | 81.6 M⁻¹ s⁻¹ and 212 M⁻¹ s⁻¹
B1 | – | 2.24 | 3.87e+07 M⁻¹ s⁻¹ | 3.4 M⁻¹ s⁻¹
B2 | – | 2.64 | 1.18e+08 M⁻¹ s⁻¹ | 3.1 M⁻¹ s⁻¹
B3 | – | 1.17 | 5.58e+07 M⁻¹ s⁻¹ | –
B4 | – | 9.29 | 5.48e+07 M⁻¹ s⁻¹ | 4.3 M⁻¹ s⁻¹
B5 | – | 1.96 | – | 4.3 M⁻¹ s⁻¹ and 2.5 M⁻¹ s⁻¹
B6 | – | 2 | 7.1e+07 M⁻¹ s⁻¹ | 7.7 M⁻¹ s⁻¹
B7 | – | 2.43 | 1e+08 M⁻¹ s⁻¹ | 12.5 M⁻¹ s⁻¹
B8 | – | 2.35 | 1.17e+08 M⁻¹ s⁻¹ | 65.9 M⁻¹ s⁻¹
B9 | – | 0.78 | 9.01e+07 M⁻¹ s⁻¹ | 81.6 M⁻¹ s⁻¹
